# Results taken from paper doi:10.1101/2021.08.25.457658.
# Read-outs that look alike come from different tables or passages of the source.
# B1: Spic promoter NF-kB site mutant (dsDNA)
# DNA 1: GCTGCAAAGCCGATTTTTTTT
# DNA 2: AAAAAAAATCGGCTTTGCAGC
# B2: Spic promoter NF-kB site WT (dsDNA)
# DNA 1: GCTGCAAAGGGGATTTTTTTT
# DNA 2: AAAAAAAATCCCCTTTGCAGC
# Legend:
# [1] = target: T1, GST-p50 (NF-kB p50 subunit) (UniProt P19838-2 1-433, del434-969); assay: EMSA
# [2] = target: T1, GST-p50 (NF-kB p50 subunit); assay: EMSA; remark: listed apart in the source
Binder,binding result [1],binding result [2]
B1,no binding,
B2,,binds
